Values quoted from earlier work, collected in paper PMC4031507.

Target: Cys+1 (UniProt position 252, VVKNKCLAEGT)

Substance: RecA intein (Mtu RecA intein) with C-extein Cys+1 (Mycobacterium tuberculosis)
- pKa: 5.8
